Test results as given in PMC6450059.

Tests used:
[1] = target: PmScsCΔLinker (Proteus mirabilis); experiment: SAXS; PmScsCΔLinker, concentration series 0.1-10.0 mg ml^-1 in 10 mM HEPES pH 7.4, 150 mM NaCl, 283 K; linear combination of monomer, dimer and trimer scattering curves, global (common K d and K t) and independent optimization; K d: monomers and dimer; K t: monomer, dimer and trimer
[2] = target: PmScsCΔLinker (Proteus mirabilis); experiment: crystal structure; PmScsCΔLinker 40 mg ml^-1 in 10 mM HEPES pH 7.4, 150 mM NaCl; 0.1 M HEPES pH 7, 32%(v/v) Jeffamine M-600; 293 K; space group H32, one protomer in the asymmetric unit, trimer through crystallographic symmetry
[3] = target: Suppressor of copper sensitivity protein C from Proteus mirabilis (PmScsC) (Proteus mirabilis); experiment: SAXS; native PmScsC, concentration series 0.1-10.0 mg ml^-1 in 10 mM HEPES pH 7.4, 150 mM NaCl, 283 K; linear combination of monomer and trimer scattering curves, global (common K t) and independent optimization; K t: monomers and trimer

PmScsCΔLinker (enzyme) gave a K t (equilibrium constant for trimer formation, from monomer and dimer) [1] of 730 µM, a Kd [1] of 210 µM and a dimer fraction at 0.1 mg/ml (global optimization) [1] of 0.03. The dimer fraction at 0.1 mg/ml (independent optimization) [1] was 0, the dimer fraction at 0.5 mg/ml (global optimization) [1] was 0.12 and the dimer fraction at 0.5 mg/ml (independent optimization) [1] was 0. It also gave a dimer fraction at 2.0 mg/ml (global optimization) [1] of 0.27, a dimer fraction at 2.0 mg/ml (independent optimization) [1] of 0.33 and a dimer fraction at 5.0 mg/ml (global optimization) [1] of 0.41. For the same substance, the dimer fraction at 5.0 mg/ml (independent optimization) [1] was 0.37, the dimer fraction at 10.0 mg/ml (global optimization) [1] was 0.48 and the dimer fraction at 10.0 mg/ml (independent optimization) [1] was 0.49. It also gave a monomer fraction at 0.1 mg/ml (global optimization) [1] of 0.97, a monomer fraction at 0.1 mg/ml (independent optimization) [1] of 1 and a monomer fraction at 0.5 mg/ml (global optimization) [1] of 0.88. It also gave a monomer fraction at 0.5 mg/ml (independent optimization) [1] of 0.94, a monomer fraction at 2.0 mg/ml (global optimization) [1] of 0.71 and a monomer fraction at 2.0 mg/ml (independent optimization) [1] of 0.67. The monomer fraction at 5.0 mg/ml (global optimization) [1] was 0.53, the monomer fraction at 5.0 mg/ml (independent optimization) [1] was 0.55 and the monomer fraction at 10.0 mg/ml (global optimization) [1] was 0.4. For the same substance, the monomer fraction at 10.0 mg/ml (independent optimization) [1] was 0.37, the trimer fraction at 0.1 mg/ml (global optimization) [1] was 0 and the trimer fraction at 0.1 mg/ml (independent optimization) [1] was 0. The trimer fraction at 0.5 mg/ml (global optimization) [1] was 0, the trimer fraction at 0.5 mg/ml (independent optimization) [1] was 0.06 and the trimer fraction at 2.0 mg/ml (global optimization) [1] was 0.02. The trimer fraction at 2.0 mg/ml (independent optimization) [1] was 0, the trimer fraction at 5.0 mg/ml (global optimization) [1] was 0.07 and the trimer fraction at 5.0 mg/ml (independent optimization) [1] was 0.08. It also gave a trimer fraction at 10.0 mg/ml (global optimization) [1] of 0.12, a trimer fraction at 10.0 mg/ml (independent optimization) [1] of 0.1 and a stoichiometry N [2] of 3.
Work on “Suppressor of copper sensitivity protein C from Proteus mirabilis (PmScsC) (enzyme)” yielded a K t (equilibrium constant for trimer formation, monomers and trimer) [3] of 6.3e-18 M^2, a monomer fraction at 0.1 mg/ml (global optimization) [3] of 0.01 and a monomer fraction at 0.1 mg/ml (independent optimization) [3] of 0.21. The monomer fraction at 0.5 mg/ml (global optimization) [3] was 0, the monomer fraction at 0.5 mg/ml (independent optimization) [3] was 0.04 and the monomer fraction at 2.0 mg/ml (global optimization) [3] was 0. The monomer fraction at 2.0 mg/ml (independent optimization) [3] was 0, the monomer fraction at 5.0 mg/ml (global optimization) [3] was 0 and the monomer fraction at 5.0 mg/ml (independent optimization) [3] was 0. For the same substance, the monomer fraction at 10.0 mg/ml (global optimization) [3] was 0, the monomer fraction at 10.0 mg/ml (independent optimization) [3] was 0 and the stoichiometry N [3] was 3. For the same substance, the trimer fraction at 0.1 mg/ml (global optimization) [3] was 0.99, the trimer fraction at 0.1 mg/ml (independent optimization) [3] was 0.79 and the trimer fraction at 0.5 mg/ml (global optimization) [3] was 1. It also gave a trimer fraction at 0.5 mg/ml (independent optimization) [3] of 0.96, a trimer fraction at 2.0 mg/ml (global optimization) [3] of 1 and a trimer fraction at 2.0 mg/ml (independent optimization) [3] of 1. The trimer fraction at 5.0 mg/ml (global optimization) [3] was 1, the trimer fraction at 5.0 mg/ml (independent optimization) [3] was 1 and the trimer fraction at 10.0 mg/ml (global optimization) [3] was 1. The trimer fraction at 10.0 mg/ml (independent optimization) [3] was 1.
